Laboratory results published in patent US20240116985A1 (published 2024).
Starred links: 1 amine or outer side, 2 acyl side, 3 side chain; linkers in the order of their positions; H or OH if unused. Positions of bridges follow the written chain, without caps; N, C: chain ends. Non-standard residues stand in square brackets, D forms with d. Primed or numbered codes have the meaning given here. B5(17) = 2,2-bis(4-pentenyl)glycine = 2-amino-2-(pent-4-en-1-yl)hept-6-enoic acid, stitching residue, C=CCCCC(CCCC=C)(N[*:1])C(=O)[*:2]; B5(18) = 2,2-bis(4-pentenyl)glycine (2-amino-2-(pent-4-en-1-yl)hept-6-enoic acid), stitching residue, C=CCCCC(CCCC=C)(N[*:1])C(=O)[*:2]; B5(4) = 2,2-bis(4-pentenyl)glycine = 2-amino-2-(pent-4-en-1-yl)hept-6-enoic acid (stitching residue), C=CCCCC(CCCC=C)(N[*:1])C(=O)[*:2]; B5(3) = 2,2-bis(4-pentenyl)glycine (stitching residue), C=CCCCC(CCCC=C)(N[*:1])C(=O)[*:2]; Phe(F5) = N[C@@H](Cc1c(F)c(F)c(F)c(F)c1F)C(=O)O; Phe(3,4-F2) = N[C@@H](Cc1ccc(F)c(F)c1)C(=O)O; Phe(3-F) = N[C@@H](Cc1cccc(F)c1)C(=O)O; Phe(3-Me) = Cc1cccc(C[C@H](N)C(=O)O)c1; 2Nal = N[C@@H](Cc1ccc2ccccc2c1)C(=O)O; hTyr = N[C@@H](CCc1ccc(O)cc1)C(=O)O; αAllylPro = C=CC[C@@]1(C(=O)O)CCCN1; hPhe = N[C@@H](CCc1ccccc1)C(=O)O; 3Pal = N[C@@H](Cc1cccnc1)C(=O)O; 4Pal = N[C@@H](Cc1ccncc1)C(=O)O; S8 = C=CCCCCCC[C@](C)(N)C(=O)O; Nle = CCCC[C@H](N)C(=O)O

T1: full-length beta-Catenin (Uniprot ID P35222) (Homo sapiens (Human), UniProt P35222 1-781)
T1 construct: The assay protocols call it full-length; also called B-Catenin; bCat
T1 sequence: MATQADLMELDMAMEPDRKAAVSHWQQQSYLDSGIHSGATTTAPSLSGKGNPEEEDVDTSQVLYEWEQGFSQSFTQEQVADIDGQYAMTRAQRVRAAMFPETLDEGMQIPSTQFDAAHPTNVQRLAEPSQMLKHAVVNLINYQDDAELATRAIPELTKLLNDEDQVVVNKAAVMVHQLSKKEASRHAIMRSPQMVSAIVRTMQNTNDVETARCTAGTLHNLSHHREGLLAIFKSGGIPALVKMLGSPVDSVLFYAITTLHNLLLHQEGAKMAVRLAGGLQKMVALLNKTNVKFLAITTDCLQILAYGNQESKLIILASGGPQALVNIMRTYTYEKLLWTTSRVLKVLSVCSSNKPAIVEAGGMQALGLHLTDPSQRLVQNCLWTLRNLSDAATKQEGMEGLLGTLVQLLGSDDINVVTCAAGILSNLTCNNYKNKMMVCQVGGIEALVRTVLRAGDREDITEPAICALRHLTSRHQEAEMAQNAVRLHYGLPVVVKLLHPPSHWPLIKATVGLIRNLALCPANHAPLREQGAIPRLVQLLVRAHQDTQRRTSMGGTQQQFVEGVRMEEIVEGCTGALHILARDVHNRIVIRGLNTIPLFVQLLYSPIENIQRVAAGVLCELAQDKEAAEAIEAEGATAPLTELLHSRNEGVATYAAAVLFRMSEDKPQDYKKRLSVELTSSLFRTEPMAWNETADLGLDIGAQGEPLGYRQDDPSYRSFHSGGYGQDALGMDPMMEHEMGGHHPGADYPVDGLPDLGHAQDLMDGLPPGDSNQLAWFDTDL

T2: full-length beta-Catenin (Uniprot ID P35222) (Homo sapiens (Human), UniProt P35222 1-781)
T2 construct: Used full-length in the FP and AlphaScreen assays; also called B-Catenin; bCat
T2 sequence: T1 sequence

B1: I-281 (peptide)
peptide: XDAXEDAAFVXFWQ
modifications: not fully specified; N-terminal Ac; PL3 at 1; B5 at 4; S8 at 11; C-terminal NH2; staples PL3(1)-B5(4) and B5(4)-S8(11) by olefin metathesis
notes: Stapled (stitched) peptide; also called Ac-PL3-Asp-Ala-B5-Glu-Asp-Ala-Ala-Phe-Val-S8-Phe-Trp-Gln-NH2
B2: I-282 (peptide)
peptide: XDAXEDAAFVXFWQ
modifications: not fully specified; N-terminal Ac; PL3 at 1; B5 at 4; S8 at 11; C-terminal NH2; staples PL3(1)-B5(4) and B5(4)-S8(11) by olefin metathesis
notes: as for B1
B3: I-283 (peptide)
peptide: Ac-[αAllylPro]DA[B5(4)]DDAAFV[S8]DWQ-NH2
modifications: staple 1-4, 4-11
notes: Stapled (stitched) peptide; also called Ac-PL3-Asp-Ala-B5-Asp-Asp-Ala-Ala-Phe-Val-S8-Asp-Trp-Gln-NH2
B4: I-284 (peptide)
peptide: Ac-[αAllylPro]DA[B5(4)]DDAAFV[S8]NWQ-NH2
modifications: staple 1-4, 4-11
notes: Stapled (stitched) peptide; also called Ac-PL3-Asp-Ala-B5-Asp-Asp-Ala-Ala-Phe-Val-S8-Asn-Trp-Gln-NH2
B5: I-268 (peptide)
peptide: Ac-[αAllylPro]DA[B5(17)]DDAAFV[S8][hPhe]WQ-NH2
modifications: staple 1-4, 4-11
notes: Stapled (stitched) peptide; also called Ac-PL3-Asp-Ala-B5-Asp-Asp-Ala-Ala-Phe-Val-S8-hPhe-Trp-Gln-NH2
B6: I-269 (peptide)
peptide: Ac-[αAllylPro]DA[B5(17)]DDAAFV[S8][hTyr]WQ-NH2
modifications: staple 1-4, 4-11
notes: Stapled (stitched) peptide; also called Ac-PL3-Asp-Ala-B5-Asp-Asp-Ala-Ala-Phe-Val-S8-hTyr-Trp-Gln-NH2
B7: I-272 (peptide)
peptide: Ac-[αAllylPro]DA[B5(17)]D[4Pal]AAFV[S8]FWQ-NH2
modifications: staple 1-4, 4-11
notes: Stapled (stitched) peptide; also called Ac-PL3-Asp-Ala-B5-Asp-4PyrA-Ala-Ala-Phe-Val-S8-Phe-Trp-Gln-NH2
B8: I-273 (peptide)
peptide: Ac-[αAllylPro]DA[B5(17)]D[hTyr]AAFV[S8]FWQ-NH2
modifications: staple 1-4, 4-11
notes: Stapled (stitched) peptide; also called Ac-PL3-Asp-Ala-B5-Asp-hTyr-Ala-Ala-Phe-Val-S8-Phe-Trp-Gln-NH2
B9: I-196 (peptide)
peptide: Ac-[αAllylPro]DA[B5(4)][hPhe]EAAFV[S8]FWQ-NH2
modifications: staple 1-4, 4-11
notes: Stapled peptide composition; this is the earlier-eluting isomer composition
B10: I-197 (peptide)
peptide: Ac-[αAllylPro]DA[B5(4)][hPhe]EAAFV[S8]FWQ-NH2
modifications: staple 1-4, 4-11
notes: Stapled peptide composition; this is the later-eluting isomer composition

Target: T1, full-length beta-Catenin (Uniprot ID …)
Assay: AlphaScreen competition; full-length beta-catenin with biotin-labelled TCF4 10-53 peptide as competitor
Protocol: (§1) Equal volume of the titrated peptide was added to the plate and incubated for 15 minutes at 20° C. Then 4 uL of donor and 4 uL acceptor beads at 10 ug/mL were added to the plate, for a 16 uL reaction pool and protected from light for 60 minutes at 20° C. prior to read. Reads were performed on a CLARIOstar plate reader (BMG Labtech) in duplicate, and data were fitted to a 1:1 binding model with hill slope using an in-house script. All provided concentrations are final concentrations.

Binder	EC50 [µM]
B1	6.26
B2	3.53
B3	9.54
B4	4.35
B5	4
B6	5.31
B7	1.01
B8	1.89

Target: T2, full-length beta-Catenin (Uniprot ID …)
Assay: AlphaScreen (nickel chelate) competition; full-length beta-catenin + biotin-TCF4(10-53) probe as competitor; peptide titrated
Protocol: as §1

Binder	EC50 [µM]
Ac-[αAllylPro]FA[B5(3)]DEAAFV[S8]FWQ-NH2 (staple 1-4, 4-11, Stapled peptide composition) [I-201]	6.16
Ac-[αAllylPro]YA[B5(3)]DEAAFV[S8]FWQ-NH2 (staple 1-4, 4-11, Stapled peptide composition) [I-202]	7.88
Ac-[αAllylPro][Phe(3-F)]A[B5(3)]DEAAFV[S8]FWQ-NH2 (staple 1-4, 4-11, Stapled peptide composition) [I-204]	7.28
Ac-[αAllylPro]DA[B5(4)]HEAAFV[S8]FWQ-NH2 (staple 1-4, 4-11, Stapled peptide composition) [I-206]	2.14
Ac-[αAllylPro]DA[B5(4)]DEAAFV[S8][Phe(F5)]WQ-NH2 (staple 1-4, 4-11, Stapled peptide composition) [I-183]	3.77
Ac-[αAllylPro]DA[B5(18)]DEAA[Phe(3,4-F2)]A[S8]F[2Nal]A-NH2 (staple 1-4, 4-11, Stapled peptide composition) [I-185]	2.66
Ac-[αAllylPro]DA[B5(4)]D[hPhe]AAFV[S8]FWQ-NH2 (staple 1-4, 4-11, Stapled peptide composition) [I-195]	2.18
B9	5.51
B10	6.15
Ac-[αAllylPro][Phe(3-Me)]A[B5(3)]DEAAFV[S8]FWQ-NH2 (staple 1-4, 4-11, Stapled peptide composition) [I-203]	5.99
Ac-[αAllylPro]DA[B5(3)][Nle]EAAFV[S8]FWQ-NH2 (staple 1-4, 4-11, Stapled peptide composition) [I-205]	≥ 10
Ac-[αAllylPro]DA[B5(4)][3Pal]EAAFV[S8]FWQ-NH2 (staple 1-4, 4-11, Stapled peptide composition) [I-213]	8.05
